Test results published in US20220168396A1, “MULTI-RECEPTOR AGONIST AND MEDICAL USE THEREOF” (published 2022).
Square brackets hold non-standard residues; d marks the D form. Ends that are not written are not given here. Aib = CC(C)(N)C(=O)O

T1: human glucose-dependent insulinotropic peptide receptor (human, UniProt P48546)
T1 sequence: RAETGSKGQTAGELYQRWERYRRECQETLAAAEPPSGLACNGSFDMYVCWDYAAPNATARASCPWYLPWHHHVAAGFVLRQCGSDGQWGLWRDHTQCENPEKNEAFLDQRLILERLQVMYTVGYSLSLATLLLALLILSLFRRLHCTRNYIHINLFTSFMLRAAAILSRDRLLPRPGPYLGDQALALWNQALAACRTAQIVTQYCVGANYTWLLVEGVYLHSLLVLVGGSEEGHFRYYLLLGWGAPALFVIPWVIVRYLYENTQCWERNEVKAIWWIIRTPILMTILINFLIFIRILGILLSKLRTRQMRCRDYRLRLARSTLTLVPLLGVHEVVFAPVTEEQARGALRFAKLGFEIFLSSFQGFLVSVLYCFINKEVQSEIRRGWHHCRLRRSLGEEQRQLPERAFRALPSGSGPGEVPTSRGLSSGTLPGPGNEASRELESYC

B1: Compound No. 70 (peptide)
peptide: Y[Aib]EGTFTSDYSIYLEEIAAQEFVNWLLAGGPSSGAPPPS-NH2
modifications: N-terminus assumed
SMILES: CC[C@H](C)[C@H](NC(=O)[C@H](CCC(=O)O)NC(=O)[C@H](CCC(=O)O)NC(=O)[C@H](CC(C)C)NC(=O)[C@H](Cc1ccc(O)cc1)NC(=O)[C@@H](NC(=O)[C@H](CO)NC(=O)[C@H](Cc1ccc(O)cc1)NC(=O)[C@H](CC(=O)O)NC(=O)[C@H](CO)NC(=O)[C@@H](NC(=O)[C@H](Cc1ccccc1)NC(=O)[C@@H](NC(=O)CNC(=O)[C@H](CCC(=O)O)NC(=O)C(C)(C)NC(=O)[C@@H](N)Cc1ccc(O)cc1)[C@@H](C)O)[C@@H](C)O)[C@@H](C)CC)C(=O)N[C@@H](C)C(=O)N[C@@H](C)C(=O)N[C@@H](CCC(N)=O)C(=O)N[C@@H](CCC(=O)O)C(=O)N[C@@H](Cc1ccccc1)C(=O)N[C@H](C(=O)N[C@@H](CC(N)=O)C(=O)N[C@@H](Cc1c[nH]c2ccccc12)C(=O)N[C@@H](CC(C)C)C(=O)N[C@@H](CC(C)C)C(=O)N[C@@H](C)C(=O)NCC(=O)NCC(=O)N1CCC[C@H]1C(=O)N[C@@H](CO)C(=O)N[C@@H](CO)C(=O)NCC(=O)N[C@@H](C)C(=O)N1CCC[C@H]1C(=O)N1CCC[C@H]1C(=O)N1CCC[C@H]1C(=O)N[C@@H](CO)C(N)=O)C(C)C
B2: Compound No. 65 (peptide)
peptide: Y[Aib]EGTFTSDYSIYLEKEAAKEFIQWLLAGGPSSGAPPPS-NH2
modifications: N-terminus assumed
SMILES: CC[C@H](C)[C@H](NC(=O)[C@H](Cc1ccccc1)NC(=O)[C@H](CCC(=O)O)NC(=O)[C@H](CCCCN)NC(=O)[C@H](C)NC(=O)[C@H](C)NC(=O)[C@H](CCC(=O)O)NC(=O)[C@H](CCCCN)NC(=O)[C@H](CCC(=O)O)NC(=O)[C@H](CC(C)C)NC(=O)[C@H](Cc1ccc(O)cc1)NC(=O)[C@@H](NC(=O)[C@H](CO)NC(=O)[C@H](Cc1ccc(O)cc1)NC(=O)[C@H](CC(=O)O)NC(=O)[C@H](CO)NC(=O)[C@@H](NC(=O)[C@H](Cc1ccccc1)NC(=O)[C@@H](NC(=O)CNC(=O)[C@H](CCC(=O)O)NC(=O)C(C)(C)NC(=O)[C@@H](N)Cc1ccc(O)cc1)[C@@H](C)O)[C@@H](C)O)[C@@H](C)CC)C(=O)N[C@@H](CCC(N)=O)C(=O)N[C@@H](Cc1c[nH]c2ccccc12)C(=O)N[C@@H](CC(C)C)C(=O)N[C@@H](CC(C)C)C(=O)N[C@@H](C)C(=O)NCC(=O)NCC(=O)N1CCC[C@H]1C(=O)N[C@@H](CO)C(=O)N[C@@H](CO)C(=O)NCC(=O)N[C@@H](C)C(=O)N1CCC[C@H]1C(=O)N1CCC[C@H]1C(=O)N1CCC[C@H]1C(=O)N[C@@H](CO)C(N)=O
B3: Compound No. 64 (peptide)
peptide: Y[Aib]EGTFTSDYSIYLEKEAAKEFVQWLLAGGPSSGAPPPS-NH2
modifications: N-terminus assumed
SMILES: CC[C@H](C)[C@H](NC(=O)[C@H](CO)NC(=O)[C@H](Cc1ccc(O)cc1)NC(=O)[C@H](CC(=O)O)NC(=O)[C@H](CO)NC(=O)[C@@H](NC(=O)[C@H](Cc1ccccc1)NC(=O)[C@@H](NC(=O)CNC(=O)[C@H](CCC(=O)O)NC(=O)C(C)(C)NC(=O)[C@@H](N)Cc1ccc(O)cc1)[C@@H](C)O)[C@@H](C)O)C(=O)N[C@@H](Cc1ccc(O)cc1)C(=O)N[C@@H](CC(C)C)C(=O)N[C@@H](CCC(=O)O)C(=O)N[C@@H](CCCCN)C(=O)N[C@@H](CCC(=O)O)C(=O)N[C@@H](C)C(=O)N[C@@H](C)C(=O)N[C@@H](CCCCN)C(=O)N[C@@H](CCC(=O)O)C(=O)N[C@@H](Cc1ccccc1)C(=O)N[C@H](C(=O)N[C@@H](CCC(N)=O)C(=O)N[C@@H](Cc1c[nH]c2ccccc12)C(=O)N[C@@H](CC(C)C)C(=O)N[C@@H](CC(C)C)C(=O)N[C@@H](C)C(=O)NCC(=O)NCC(=O)N1CCC[C@H]1C(=O)N[C@@H](CO)C(=O)N[C@@H](CO)C(=O)NCC(=O)N[C@@H](C)C(=O)N1CCC[C@H]1C(=O)N1CCC[C@H]1C(=O)N1CCC[C@H]1C(=O)N[C@@H](CO)C(N)=O)C(C)C
B4: Compound No. 63 (peptide)
peptide: Y[Aib]EGTFTSDYSIYLEKEAAKEFINWLLAGGPSSGAPPPS-NH2
modifications: N-terminus assumed
SMILES: CC[C@H](C)[C@H](NC(=O)[C@H](Cc1ccccc1)NC(=O)[C@H](CCC(=O)O)NC(=O)[C@H](CCCCN)NC(=O)[C@H](C)NC(=O)[C@H](C)NC(=O)[C@H](CCC(=O)O)NC(=O)[C@H](CCCCN)NC(=O)[C@H](CCC(=O)O)NC(=O)[C@H](CC(C)C)NC(=O)[C@H](Cc1ccc(O)cc1)NC(=O)[C@@H](NC(=O)[C@H](CO)NC(=O)[C@H](Cc1ccc(O)cc1)NC(=O)[C@H](CC(=O)O)NC(=O)[C@H](CO)NC(=O)[C@@H](NC(=O)[C@H](Cc1ccccc1)NC(=O)[C@@H](NC(=O)CNC(=O)[C@H](CCC(=O)O)NC(=O)C(C)(C)NC(=O)[C@@H](N)Cc1ccc(O)cc1)[C@@H](C)O)[C@@H](C)O)[C@@H](C)CC)C(=O)N[C@@H](CC(N)=O)C(=O)N[C@@H](Cc1c[nH]c2ccccc12)C(=O)N[C@@H](CC(C)C)C(=O)N[C@@H](CC(C)C)C(=O)N[C@@H](C)C(=O)NCC(=O)NCC(=O)N1CCC[C@H]1C(=O)N[C@@H](CO)C(=O)N[C@@H](CO)C(=O)NCC(=O)N[C@@H](C)C(=O)N1CCC[C@H]1C(=O)N1CCC[C@H]1C(=O)N1CCC[C@H]1C(=O)N[C@@H](CO)C(N)=O
B5: Compound No. 66 (peptide)
peptide: Y[Aib]EGTFTSDYSIYLEKEAAKEFVAWLLAGGPSSGAPPPS-NH2
modifications: N-terminus assumed
SMILES: CC[C@H](C)[C@H](NC(=O)[C@H](CO)NC(=O)[C@H](Cc1ccc(O)cc1)NC(=O)[C@H](CC(=O)O)NC(=O)[C@H](CO)NC(=O)[C@@H](NC(=O)[C@H](Cc1ccccc1)NC(=O)[C@@H](NC(=O)CNC(=O)[C@H](CCC(=O)O)NC(=O)C(C)(C)NC(=O)[C@@H](N)Cc1ccc(O)cc1)[C@@H](C)O)[C@@H](C)O)C(=O)N[C@@H](Cc1ccc(O)cc1)C(=O)N[C@@H](CC(C)C)C(=O)N[C@@H](CCC(=O)O)C(=O)N[C@@H](CCCCN)C(=O)N[C@@H](CCC(=O)O)C(=O)N[C@@H](C)C(=O)N[C@@H](C)C(=O)N[C@@H](CCCCN)C(=O)N[C@@H](CCC(=O)O)C(=O)N[C@@H](Cc1ccccc1)C(=O)N[C@H](C(=O)N[C@@H](C)C(=O)N[C@@H](Cc1c[nH]c2ccccc12)C(=O)N[C@@H](CC(C)C)C(=O)N[C@@H](CC(C)C)C(=O)N[C@@H](C)C(=O)NCC(=O)NCC(=O)N1CCC[C@H]1C(=O)N[C@@H](CO)C(=O)N[C@@H](CO)C(=O)NCC(=O)N[C@@H](C)C(=O)N1CCC[C@H]1C(=O)N1CCC[C@H]1C(=O)N1CCC[C@H]1C(=O)N[C@@H](CO)C(N)=O)C(C)C
B6: Compound No. 69 (peptide)
peptide: Y[Aib]EGTFTSDVSIYLDKIAAQEFVNWLLAGGPSSGAPPPS-NH2
modifications: N-terminus assumed
SMILES: CC[C@H](C)[C@H](NC(=O)[C@H](CCCCN)NC(=O)[C@H](CC(=O)O)NC(=O)[C@H](CC(C)C)NC(=O)[C@H](Cc1ccc(O)cc1)NC(=O)[C@@H](NC(=O)[C@H](CO)NC(=O)[C@@H](NC(=O)[C@H](CC(=O)O)NC(=O)[C@H](CO)NC(=O)[C@@H](NC(=O)[C@H](Cc1ccccc1)NC(=O)[C@@H](NC(=O)CNC(=O)[C@H](CCC(=O)O)NC(=O)C(C)(C)NC(=O)[C@@H](N)Cc1ccc(O)cc1)[C@@H](C)O)[C@@H](C)O)C(C)C)[C@@H](C)CC)C(=O)N[C@@H](C)C(=O)N[C@@H](C)C(=O)N[C@@H](CCC(N)=O)C(=O)N[C@@H](CCC(=O)O)C(=O)N[C@@H](Cc1ccccc1)C(=O)N[C@H](C(=O)N[C@@H](CC(N)=O)C(=O)N[C@@H](Cc1c[nH]c2ccccc12)C(=O)N[C@@H](CC(C)C)C(=O)N[C@@H](CC(C)C)C(=O)N[C@@H](C)C(=O)NCC(=O)NCC(=O)N1CCC[C@H]1C(=O)N[C@@H](CO)C(=O)N[C@@H](CO)C(=O)NCC(=O)N[C@@H](C)C(=O)N1CCC[C@H]1C(=O)N1CCC[C@H]1C(=O)N1CCC[C@H]1C(=O)N[C@@H](CO)C(N)=O)C(C)C

Columns and labels:
[1] = molecular target: human glucagon-like peptide-1 receptor (human, UniProt P43220); test: cell-based or functional assay
[2] = molecular target: T1, human glucose-dependent insulinotropic …; test: cell-based or functional assay

Row | Binder | Activity for human GLP-1R (EC50 nM), cAMP HTRF [1] [nM] | Activity for human GIPR (EC50 nM), cAMP HTRF [2] [nM]
1 | B1 | 0.017 | 0.017
2 | B2 | 0.013 | 0.027
3 | B3 | 0.02 | 0.033
4 | B4 | 0.01 | 0.02
5 | B5 | 0.026 | 0.054
6 | B6 | 0.052 | 0.12
